From the supplement of paper PMC11780869

test system: Bacillus subtilis; test: cleaved RNA product abundance (RNA/gDNA barcode ratio) relative to median wild-type variant (ratio to wild type); higher = more accumulation of the downstream cleavage product; conditions: experiment (reporter, strain, medium): exp 8a: truncated aprE reporter, strain BJT201 with 2% xylose (RNase J1 expressed); cleavage site: glnRA (positions -5 to +31 mutated)
Summary of the method: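 Reporter mRNAs (truncated aprE or tetM) carrying barcoded, mutagenized RNase Y cleavage-site windows were made from oligos with a 9% error rate and integrated into the B. subtilis chromosome. Cultures grew in LB at 37°C from OD600 0.0003 to 0.3. Cleaved RNA was gel-selected, reverse transcribed and barcode-sequenced alongside genomic DNA barcodes, with UMI collapsing. Cleaved product abundance is the RNA:gDNA barcode ratio per variant, scaled to the median wild-type variant.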

Going from “CGACATGTCCCGCTTCTTTCATTAATCAGTTAGCAACTGTTTTGCTATATACATTTATCTTTTAAGAGGAGGAAT” to “CGACATGTCCCGCTTCTTTCATTAATCAGTTAGCAACTGTTTTGCTATATACTTTTACCTTTTAAGAGGAGGAAT”, the “cleaved RNA product abundance” value falls from 0.854 to 0.343.

Compared with “CGACATGTCCCGCTTCTTTCATTAATCAGTTAGCAACTGTTTTGCTATATAGATTTACCTTTTAAGAGGAGGAAT”, “CGACATGTCCCGCTTCTTTCATTAATCAGTTAGCAACTGTTTTGCTATATATATTTACCTTTTAAGAGGAGGAAT” is lower in “cleaved RNA product abundance” value: 0.842 for the first, 0.759 for the second.

Going from “CGACATGTCCCGCTTCTTTCATTAATCAGTTAGCAACTGTTTTGTTATATACATTTACCTTTTAAGAGGAGGAAT” to “CGACATGTCCCGCTTCTTTCATTAATCAGTTAGCAACTGTTTTTCTATATACATTTACCTTTTAAGAGGAGGAAT”, the “cleaved RNA product abundance” value rises from 0.523 to 0.642.

Compared with “CGACATGTCCCGCTTCTTTCATTAATCAGTTAGCAACTTTTTTGCTATATACATTTACCTTTTAAGAGGAGGAAT”, “CGACATGTCCCGCTTCTTTCATTAATCAGTTAGCATCTGTTTTGCTATATACATTTACCTTTTAAGAGGAGGAAT” is lower in “cleaved RNA product abundance” value: 1.18 for the first, 0.725 for the second.

Going from “CGACATGTCCCGCTTCTTTCATTAATCAGTTAGCTACTGTTTTGCTATATACATTTACCTTTTAAGAGGAGGAAT” to “CGACATGTCCCGCTTCTTTCATTAATCAGTTAGTAACTGTTTTGCTATATACATTTACCTTTTAAGAGGAGGAAT”, the “cleaved RNA product abundance” value falls from 0.423 to 0.421.

First: CGACATGTCCCGCTTCTTTCATTAATCAGTTATCAACTGTTTTGCTATATACATTTACCTTTTAAGAGGAGGAAT
Second: CGACATGTCCCGCTTCTTTCATTAATCAGTTGGCAACTGTTTTGCTATATACATTTACCTTTTAAGAGGAGGAAT
The “cleaved RNA product abundance” value of the first is lower: 0.307 for the first, 0.497 for the second.

Going from “CGACATGTCCCGCTTCTTTCATTAATCAGTTTGCAACTGTTTTGCTATATACATTTACCTTTTAAGAGGAGGAAT” to “CGACATGTCCCGCTTCTTTCATTAATCATTTAGCAACTGTTTTGCTATATACATTTACCTTTTAAGAGGAGGAAT”, the “cleaved RNA product abundance” value falls from 0.686 to 0.249.

First: CGACATGTCCCGCTTCTTTCATTAATCCAATAGCAACTGTTTTGCTATATACATTTACCTTTTAAGAGGAGGAAT
Second: CGACATGTCCCGCTTCTTTCATTAATCCATAAGCAACTGTTTTGCTATATACATTTACCTTTTAAGAGGAGGAAT
The “cleaved RNA product abundance” value of the first is higher: 0.553 for the first, 0.462 for the second.

Compared with “CGACATGTCCCGCTTCTTTCATTAATCCATCAGCAACTGTTTTGCTATATACATATACCTTTTAAGAGGAGGAAT”, “CGACATGTCCCGCTTCTTTCATTAATCCATCAGCAACTGTTTTGCTATATACATTTACCTTTTAAGAGGAGGAAT” is lower in “cleaved RNA product abundance” value: 0.507 for the first, 0.41 for the second.

First: CGACATGTCCCGCTTCTTTCATTAATCCATTAACAACTGTTTTGCTATATACATTTACCTTTTAAGAGGAGGAAT
Second: CGACATGTCCCGCTTCTTTCATTAATCCATTACCAACTGTTTTACTATATACATTTACCTTTTAAGAGGAGGAAT
The “cleaved RNA product abundance” value of the first is lower: 0.198 for the first, 0.262 for the second.

Compared with “CGACATGTCCCGCTTCTTTCATTAATCCATTACCAACTGTTTTGCTATATACATTTACCTTTTAAGAGGAGGAAT”, “CGACATGTCCCGCTTCTTTCATTAATCCATTAGAAACTGTTTTGCTATATACATTTACCTTTTAAGAGGAGGAAT” is higher in “cleaved RNA product abundance” value: 0.17 for the first, 0.244 for the second.

Compared with “CGACATGTCCCGCTTCTTTCATTAATCCATTAGAAACTGTTTTGCTATATAGATTTACCTTTTAAGAGGAGGAAT”, “CGACATGTCCCGCTTCTTTCATTAATCCATTAGAAACTGTTTTTCTATTTACATTTACCTTTTAAGAGGAGGAAT” is lower in “cleaved RNA product abundance” value: 0.302 for the first, 0.127 for the second.

Going from “CGACATGTCCCGCTTCTTTCATTAATCCATTAGCAAATGTTTTGCTATATACATTTACCTTTTAAGAGGAGGAAT” to “CGACATGTCCCGCTTCTTTCATTAATCCATTAGCAACTATTTTGCTATATACATTTACCTTTTAAGAGGAGGAAT”, the “cleaved RNA product abundance” value falls from 1.18 to 0.423.

First: CGACATGTCCCGCTTCTTTCATTAATCCATTAGCAACTGATTTGCTATATACATTTACCTTTTAAGAGGAGGAAT
Second: CGACATGTCCCGCTTCTTTCATTAATCCATTAGCAACTGTATTGCTATATACATTTACCTTTTAAGAGGAGGAAT
The “cleaved RNA product abundance” value of the first is higher: 0.89 for the first, 0.279 for the second.

Compared with “CGACATGTCCCGCTTCTTTCATTAATCCATTAGCAACTGTTATGCTATATACATTTACCTTTTAAGAGGAGGAAT”, “CGACATGTCCCGCTTCTTTCATTAATCCATTAGCAACTGTTCTGCTATATACATTTACCTTTTAAGAGGAGGAAT” is lower in “cleaved RNA product abundance” value: 0.555 for the first, 0.271 for the second.

Compared with “CGACATGTCCCGCTTCTTTCATTAATCCATTAGCAACTGTTTCGCTATATACATTTACCTTTTAAGAGGAGGAAT”, “CGACATGTCCCGCTTCTTTCATTAATCCATTAGCAACTGTTTGGCTATATACATTTACCTTTTAAGAGGAGGAAT” is higher in “cleaved RNA product abundance” value: 0.271 for the first, 0.386 for the second.

Going from “CGACATGTCCCGCTTCTTTCATTAATCCATTAGCAACTGTTTTACTATATACATATACCTTTTAAGAGGAGGAAT” to “CGACATGTCCCGCTTCTTTCATTAATCCATTAGCAACTGTTTTACTATATACATTTACCTTTTAAGAGGAGGAAT”, the “cleaved RNA product abundance” value falls from 0.482 to 0.48.

Compared with “CGACATGTCCCGCTTCTTTCATTAATCCATTAGCAACTGTTTTGATATATACAGTTACCTTTTAAGAGGAGGAAT”, “CGACATGTCCCGCTTCTTTCATTAATCCATTAGCAACTGTTTTGATATATACATTTACCTTTTAAGAGGAGGAAT” is higher in “cleaved RNA product abundance” value: 0.247 for the first, 0.35 for the second.

Compared with “CGACATGTCCCGCTTCTTTCATTAATCCATTAGCAACTGTTTTGCAATATACATTTACCTTTTAAGAGGAGGAAT”, “CGACATGTCCCGCTTCTTTCATTAATCCATTAGCAACTGTTTTGCTAAATACATTTACCTTTTAAGAGGAGGAAT” is higher in “cleaved RNA product abundance” value: 0.408 for the first, 0.47 for the second.

Going from “CGACATGTCCCGCTTCTTTCATTAATCCATTAGCAACTGTTTTGCTACATACATTTACCTTTTAAGAGGAGGAAT” to “CGACATGTCCCGCTTCTTTCATTAATCCATTAGCAACTGTTTTGCTATAGACATTTACCTTTTAAGAGGAGGAAT”, the “cleaved RNA product abundance” value falls from 0.772 to 0.532.

Going from “CGACATGTCCCGCTTCTTTCATTAATCCATTAGCAACTGTTTTGCTATATAAATTTACCTTTTAAGAGGAGGAAT” to “CGACATGTCCCGCTTCTTTCATTAATCCATTAGCAACTGTTTTGCTATATACATATACCTTTTAAGAGGAGGAAT”, the “cleaved RNA product abundance” value rises from 0.754 to 0.929.

First: CGACATGTCCCGCTTCTTTCATTAATCCATTAGCAACTGTTTTGCTATATACATCTACCTTTTAAGAGGAGGAAT
Second: CGACATGTCCCGCTTCTTTCATTAATCCATTAGCAACTGTTTTGCTATATACATTAACCTTTTAAGAGGAGGAAT
The “cleaved RNA product abundance” value of the first is lower: 0.942 for the first, 1.3 for the second.

Going from “CGACATGTCCCGCTTCTTTCATTAATCCATTAGCAACTGTTTTGCTATATACATTCACCTTTTAAGAGGAGGAAT” to “CGACATGTCCCGCTTCTTTCATTAATCCATTAGCAACTGTTTTGCTATATACATTTACATTTTAAGAGGAGGAAT”, the “cleaved RNA product abundance” value rises from 0.276 to 0.688.

First: CGACATGTCCCGCTTCTTTCATTAATCCATTAGCAACTGTTTTGCTATATACATTTACCTTTTAAGAGGAGGAAT
Second: CGACATGTCCCGCTTCTTTCATTAATCCATTAGCAACTGTTTTGCTATATACATTTACGTTTTAAGAGGAGGAAT
The “cleaved RNA product abundance” value of the first is lower: 0.857 for the first, 0.903 for the second.

Compared with “CGACATGTCCCGCTTCTTTCATTAATCCATTAGCAACTGTTTTGCTATATACATTTACTTTTTAAGAGGAGGAAT”, “CGACATGTCCCGCTTCTTTCATTAATCCATTAGCAACTGTTTTGCTATATACATTTATCTTTTAAGAGGAGGAAT” is lower in “cleaved RNA product abundance” value: 0.808 for the first, 0.777 for the second.

First: CGACATGTCCCGCTTCTTTCATTAATCCATTAGCAACTGTTTTGCTATATACATTTTACTTTTAAGAGGAGGAAT
Second: CGACATGTCCCGCTTCTTTCATTAATCCATTAGCAACTGTTTTGCTATATACATTTTCCTTTTAAGAGGAGGAAT
The “cleaved RNA product abundance” value of the first is higher: 1.24 for the first, 0.292 for the second.

First: CGACATGTCCCGCTTCTTTCATTAATCCATTAGCAACTGTTTTGCTATATACTTTTACCTTTTAAGAGGAGGAAT
Second: CGACATGTCCCGCTTCTTTCATTAATCCATTAGCAACTGTTTTGCTATATATATTTACCTTTTAAGAGGAGGAAT
The “cleaved RNA product abundance” value of the first is lower: 0.253 for the first, 0.973 for the second.

Going from “CGACATGTCCCGCTTCTTTCATTAATCCATTAGCAACTGTTTTTCTATATACATTTACCTTTTAAGAGGAGGAAT” to “CGACATGTCCCGCTTCTTTCATTAATCCATTAGCAACTTTTTTGCTATATACATTTACCTTTTAAGAGGAGGAAT”, the “cleaved RNA product abundance” value rises from 0.319 to 0.569.

Going from “CGACATGTCCCGCTTCTTTCATTAATCCATTAGCAATTGTTTTGCTATATACATTTACCTTTTAAGAGGAGGAAT” to “CGACATGTCCCGCTTCTTTCATTAATCCATTAGCAGCTGTTTTGCTATATACATTTACCTTTTAAGAGGAGGAAT”, the “cleaved RNA product abundance” value falls from 0.776 to 0.324.

Compared with “CGACATGTCCCGCTTCTTTCATTAATCCATTAGCCACTGTTTTGCTATATACATTTACCTTTTAAGAGGAGGAAT”, “CGACATGTCCCGCTTCTTTCATTAATCCATTATCAACTGTTTTGCTATATACATTTACCTTTTAAGAGGAGGAAT” is lower in “cleaved RNA product abundance” value: 0.271 for the first, 0.224 for the second.

In the case of “CGACATGTCCCGCTTCTTTCATTAATCCATTATCAACTTTTTTGCTATATACATTTACCTTTTAAGAGGAGGAAT”, the “cleaved RNA product abundance” value is reported as 0.311.
